Format in all cases: cell-based, human
The subject of test [1] is Ctrl-iPSC-CMs. The test is described as follows: MED64 multi-electrode field potential recording of beating iPSC-derived cardiomyocytes (control). The following applies: post-induction day 60, isoproterenol 0, 1, 10 μM. How it is done:
(§1) The recording area of probes with 64 recording electrodes (MED probe; MED-P515A, Alpha Med Scientific, Osaka) for the MED64 System (Alpha Med Scientific) was coated with 2 ml of 0.1% gelatin that had been incubated at 37° C. for 1 hour. Beating iPSC-derived CMs were transferred onto the MED-probe dishes, and the electrical potentials were recorded with the MED64 multi-electrode array system. […] To evaluate the compounds, a cluster was treated with a compound in stepwise concentration increments. The medium was perfused at 1.7 ml/min at 37° C., and the field potentials were measured for 5 min.

Test [2] concerns FD-iPSC-CMs. Briefly: MED64 multi-electrode field potential recording of beating iPSC-derived cardiomyocytes (Fabry). The following applies: post-induction day 60. The protocol:
as §1

Test [3] relates to ESC-CMs, Ctrl-iPSC-CMs. The test is described as follows: Alox12/Alox15 protein expression on Gb3 treatment (Western blot, immunofluorescence), control cells. The note with it: post-induction day 20, Gb3 15 μmole/L, 24 hours. The protocol: (§2) The extraction of proteins from cells and western blot analysis were performed as described previously (Yang et al., Inhibition of cancer stem cell-like properties and reduced chemoradioresistance of glioblastoma using microrna145 with cationic polyurethane-short branch pei. Biomaterials. 2012; 33:1462-1476). Whole cell lysates were separated by electrophoresis on 12% SDS-PAGE and transferred to a polyvinylidene fluoride membrane. The membranes were blocked with 5% nonfat milk at room temperature for 1 hour. The blots were incubated with primary antibodies in TBST buffer containing 3% nonfat milk at 4° C. overnight and subsequently with secondary antibodies conjugated with peroxidase at 25° C. for 1 hour. The immunoblots were developed using an enhanced chemiluminescence system, and the luminescence was visualized on X-ray film.
(§3) The living cells and spheres were fixed in 4% paraformaldehyde, permeabilized in 0.1% Triton X-100, and blocked in 5% normal goat serum in PBS. […] The total amount of retained autofluorescent material was determined in the red (546) and green (488) channels by quantifying the pixel area (Adobe Photoshop/Image J software). The cellular area contents of the normal iPSC-CMs and the FD-iPSC-CMs were quantified using the ImageJ software package (National Institutes of Health, Bethesda, MD).

Test [4] has as its system FD-iPSC-CMs. The test is described as follows: Alox12/Alox15 protein expression on Gb3 treatment (Western blot, immunofluorescence), Fabry cells. The note with it: FD-iPSC-CMs (Pt1 to Pt8), post-induction day 20; Gb3 15 μmole/L, 24 hours; vs ESC-CMs and Ctrl-iPSC-CMs. How it is done:
as §2, §3
On the technique in general: A western blot detects proteins with antibodies after separation by electrophoresis.

In test [5] the test system is Ctrl-iPSC-CMs or ESC-CMs. Briefly: ELISA of 12-HETE/15-HETE secretion into conditioned medium on Gb3 treatment, control cells. The note with it: Gb3 15 μmole/L, 24 hours. In general terms: ELISA stands for enzyme-linked immunosorbent assay.
For test [6], the system named is FD-iPSC-CMs. Briefly: ELISA of 12-HETE/15-HETE secretion into conditioned medium on Gb3 treatment, Fabry cells. The note with it: FD-iPSC-CMs (Pt1 to Pt8); Gb3 15 μmole/L, 24 hours.
Test [7] deals with ESC-CMs, Ctrl-iPSC-CMs, FC-iPSC-CMs. Briefly: GLA enzyme activity in cardiomyocytes with administration of GLA. The note with it: day 20 post-induction; GLA 5 μg/ml for 5 days; all experimental cells. How it is done: Cells were washed twice with PBS, incubated in 200 μl of fresh medium at 37° C. and 5% CO2 for 2 hours, and washed twice with PBS. Afterward, the cells were lysed in 60 μl of Lysis Buffer (27 mM of sodium citrate, 46 mM of sodium phosphate dibasic, 0.5% Triton X-100, pH 4.6). Lysates (10 μl) were added to 50 μl of Assay Buffer (Lysis Buffer without Triton X-100) containing 6 mM of 4-MUG and 117 mM of N-acetyl-D-galactosamine (GalNac, an inhibitor of -N-acetylgalactosaminidase, which is a lysosomal enzyme present in cell lysates that hydrolyzes 4-MUG) and incubated at 37° C. for 1 hour. The Stop Solution (0.4 M glycine, pH 10.8; 70 μl) was added, and the fluorescence was read on a Victor plate reader (Perkin-Elmer, Waltham, Mass.) at 355 nm excitation and 460 nm emission. A Micro BCA Protein Assay Kit (Pierce, Rockford, Ill.) was used according to the manufacturer's instructions to determine the protein concentration from 40 μl of cell lysate from each well. The total protein amount in each well was used to normalize the enzyme activity. A 4-methylumbelliferone (4-MU) standard curve ranging from 1.3 nM to 30 μM was run in parallel to calculate the absolute -Gal A activity, expressed as nmol of 4-MU released/mg protein/hour (nmol/mg protein/hour), which was normalized to the percentage of the untreated wild-type (% WT) enzyme activity. […]

Test [8] deals with FC-iPSC-CMs. Briefly: Immunofluorescence of Alox12/15 and fibrotic markers in FC-iPSC-CMs under ERT. The following applies: read at day 60. How it is done: (§4) The living cells and spheres were fixed in 4% paraformaldehyde, permeabilized in 0.1% Triton X-100, and blocked in 5% normal goat serum in PBS. After being washed three times with PBS, the cells were incubated with goat anti-mouse secondary antibodies conjugated with FITC (green) or PE (red). DAPI (blue) was used as the nuclear stain. Labeled cells were imaged with a laser-scanning confocal microscope (Olympus). The total amount of retained autofluorescent material was determined in the red (546) and green (488) channels by quantifying the pixel area (Adobe Photoshop/Image J software). The cellular area contents of the normal iPSC-CMs and the FD-iPSC-CMs were quantified using the ImageJ software package (National Institutes of Health, Bethesda, MD).
(§5) However, the interrelationship between treatment onset and the efficacy of ERT drugs in FC with fibrotic progression remains unclear. Therefore, we compared the treatment efficacy of GLA between early (5 μg/ml of GLA from day 20 to day 60 post-differentiation; FIG. 13C) and late (5 μg/ml of GLA from day 40 to day 60 post-differentiation; FIG. 13D) administrations in FC-iPSC-CMs, and evaluated the levels of cardiac Alox12/15 and fibrotic markers at day 60 post-differentiation. […] We therefore tested the treatment efficacy of the pharmacological inhibition of cardiac Alox12/15 in combination with ERT (FIG. 15).

Test [9] concerns FC-iPSC-CMs. The test is described as follows: Cell size of FC-iPSC-CMs by quantification of cTnT-positive margins. The following applies: early-administration: 5 μg/ml GLA day 20 to day 60. The protocol: as §4, §5
Test [10] relates to FC-iPSC-CMs. Briefly: Secreted levels of LysoGb3, 12(S)-HETE and 15(S)-HETE from FC-iPSC-CMs. How it is done:
For liquid chromatography for lysoGb3 and Gb3 analysis, we used Waters Alliance 2795XE HPLC system to perform stepwise gradient elution. The flow rate was 0.3 mL/min in lysoGb3 or Gb3 experiment. Mass spectrometry of lysoGb3 and Gb3 detection was performed in positive ion mode (ES+) on a triple quadruplemass spectrometer (Quattro Ultima, Waters, Milford, Mass.) with NeoLynx software version 4.1. The analyzing methods were modified from the protocol provided by Shire Human Genetic Therapies. LC-MS/MS analysis was performed using an LTQ Orbitrap (Thermo Fisher Scientific) as described previously.
Whole blood samples were collected into 1.8 mg/ml EDTA-K3 tubes and centrifuged at 2500×g for 20 min at room temperature to obtain the plasma samples. The aliquots were stored at −80° C. until use. Enzyme-linked immunoassays (ELISAs) were used for 15(S) HETE (Cayman Chemicals) and 12(S) HETE (Detroit R&D) quantification according to the manufacturers' instructions (Detroit R&D).
as §5

[11] abbreviates: early-administration of GLA, day 60, vs untreated cells.
Where [12] appears, read: late-administration of GLA, day 60.

Turning to `CC(C)NCC(O)c1ccc(O)c(O)c1` (stereo not shown) [Isoproterenol, isoproterenol], the “effect on beating frequency of contractile colonies” value in [1] was “dose-dependent chronotropic effect”. In addition, the “electrophysiological response (beating frequency) to the drug” value in test [2] is listed as “random occurrences of arrhythmias”.
For the molecule globotriaosylceramide [Gb3], the “Alox12 and Alox15 protein expression” value in test [3] is “increased”. The Alox12/Alox15 protein expression entry in test [4] is recorded as “upregulation of Alox12/Alox15 at higher magnitudes”. For the same molecule, the “secretion of 12-HETE/15-HETE” value in [5] is recorded as “mildly increase”. In addition, the “secretion of 12-HETE and 15-HETE” value in test [6] was “largely stimulated”.

B1: α-galactosidase A (protein, UniProt P06280 32-429, looked up)
Alpha-galactosidase A: LDNGLARTPTMGWLHWERFMCNLDCQEEPDSCISEKLFMEMAELMVSEGWKDAGYEYLCIDDCWMAPQRDSEGRLQADPQRFPHGIRQLANYVHSKGLKLGIYADVGNKTCAGFPGSFGYYDIDAQTFADWGVDLLKFDGCYCDSLENLADGYKHMSLALNRTGRSIVYSCEWPLYMWPFQKPNYTEIRQYCNHWRNFADIDDSWKSIKSILDWTSFNQERIVDVAGPGGWNDPDMLVIGNFGLSWNQQVTQMALWAIMAAPLFMSNDLRHISPQAKALLQDKDVIAINQDPLGKQGYQLRQGDNFEVWERPLSGLAWAVAMINRQEIGGPRSYTIAVASLGKGVACNPACFITQLLPVKRKLGFYEWTSRLRSHINPTGTVLLQLENTMQMSLKDLL
notes: enzyme used as enzyme replacement therapy (ERT) in the FC-iPSC-CM platform
Consider B1, for which the “GLA activity in cells” value in [7] is recorded as “elicited high GLA activity”. The “expression levels of Alox12/15 and fibrotic biomarkers MMP1, TGF-β and collagen1” value in test [8] (early-administration: 5 μg/ml GLA day 20 to day 60) is recorded as “suppressed”. For the same molecule, in test [8] (late-administration: 5 μg/ml GLA day 40 to day 60), the fibrotic protein expression entry is given as “negligible inhibitory effect”. In addition, the “cell size of FC-iPSC-CMs” value in [9] is reported as “prominently reduced”. For the same molecule, in test [10] (setting [11]), the “secreted level of 12-HETE” value is given as “significantly suppressed”, the “secreted level of 15-HETE” value is on record as “significantly suppressed” and the “secreted level of lysoGb3” value was “significantly suppressed”. In test [10] (setting [12]), the “secreted level of lysoGb3” value is listed as “significant reduction”, the “secretion of 12(S)-HETE” value was “negligible inhibitory effect” and the “secretion of 15(S)-HETE” value was “negligible inhibitory effect”.

Values taken from patent US20170130205A1, “METHOD FOR PREPARING INDUCED PLURIPOTENT STEM CELLS” (TAIPEI VETERANS GENERAL HOSPITAL, priority 2014, published 2017).
